How the values were obtained:
[1] = target: Bcl-2 of primary chronic lymphocytic leukemia (CLL) cells (human) (UniProt P10415); experiment: cell-based or functional assay
[2] = target: wild type Bcl-2 (overexpressed in WEHI7.2 cells) (UniProt P10415); experiment: cell-based or functional assay
Sequence of wild type Bcl-2 (overexpressed in WEHI7.2 cells) (P10415 whole entry): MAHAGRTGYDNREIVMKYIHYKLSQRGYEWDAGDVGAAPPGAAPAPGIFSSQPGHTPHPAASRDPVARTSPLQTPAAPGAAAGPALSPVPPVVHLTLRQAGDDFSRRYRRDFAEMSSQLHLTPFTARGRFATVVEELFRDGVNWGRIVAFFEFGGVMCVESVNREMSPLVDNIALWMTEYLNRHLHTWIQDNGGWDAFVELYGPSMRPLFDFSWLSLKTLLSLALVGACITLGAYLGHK

Sequence of Bcl-2 of primary chronic lymphocytic leukemia (CLL) cells (human) (P10415 whole entry): as above

## TAT-IDP (IP3R-derived peptide fused with the cell-penetrating peptide of HIV TAT)
[1]
  percentage of primary CLL cells with Ca2+ elevation: 26%
[2]
  Ca^2+ spikes per cell (single cell Ca2+ imaging, Bcl-2-positive WEHI7.2 cells) (Ca^2+ spikes per cell): 6
  percentage of Bcl-2-positive WEHI7.2 cells with a sustained pattern of Ca^2+ oscillations (three or more peaks): 36%
  percentage of Bcl-2-positive WEHI7.2 cells with one or two isolated Ca^2+ oscillations: 22%

Source: patent publication US20130217633A1
